Patent US20180355043A1

How the values were obtained:
[1] = target: DR4G99: Human HLA-DRA1*01:02/DRB1*01:01 ECD with collagen peptide CII_1236-1249 (human); assay: MSD ECL; antigen coated; protocol of Example 3
[2] = target: DR4G99: Human HLA-DRA1*01:02/DRB1*01:01 ECD with collagen peptide CII_1236-1249 (human); assay: MSD ECL; antigen coated; mAb 0.2 µg/ml

B1: DR4B4 (antibody, V domains shown)
VH: QVQLKESGPGLVAPSQSLSITCTISGFSLTSYGVHWVRQPPGKGLEWLVVIWSDGSTTYNSALKSRLSISKDNSKSQVFLKMNSLQTDDTAIYYCASHYGSTLAFASWGHGTLVTVSA
VL: DIQMTQSPASLSASVGETVTIICRASVNIYSYLAWYQQKQGKSPQLLVYNAKILAEGVPSRFSGSGSGTQFSLKINSLQPEDFGSYYCQHHYGPFTFGSGTKLEIK
B1 gave an ECL signal [1] of 697 ECL and an ECL signal [2] of 15500 ECL.
